Experiments:
[1] = target: the molecule itself; experiment: SEC; gel filtration on HiLoad 16/600 Superdex 200 pg, in the presence of 2 mM Mg2+
[2] = target: the molecule itself; experiment: crystal structure; X-ray, 1.75 Å, space group P212121, one dimer in the asymmetric unit; SeMet crystals from 0.2 M Li2SO4 and 20% PEG 3350, 25 °C

Protein	stoichiometry N [1]	binding result [2]
Ketol-acid reductoisomerase from Sulfolobus acidocaldarius (Sac-KARI), His-tagged recombinant (enzyme, pET-21a cloned through NdeI/XhoI with the His-tag coding region kept would give a C-terminal His6 tag (surmised); No tag cleavage is described; also called ilvc1559; source: E. coli BL21 (DE3), purified (heating at 65 °C for 30 min, Ni-NTA, gel filtration)) MAKIYTDKDVSLDVIKEKRVAVLGYGSQGRAWALNLRDSGIKVSVGLEREGNSWKQAENDGFKPLRTEEAVRNSDIIIFLLPDMIQRTVYLERVKPYLKEGMDLVFAHGFNIHYRLIEPPSNVDVYMIAPKAPGPIVREYFAKGGGVPALVATYQDHSGKALQKALAVAKAIGATRAGVIETTFKEETETDLFGEQVDLVGGVMQLMRYAFQTLVEAGYQPEVAYFETINEMKLIVDLVYEKGFSGMLTAVSDTAKYGGMTVGKMVIDESVKERMKKALDNIRSGKFAEKWVEEYGKGANTIKEGMKEVDNSTEEKVGRSLRDIILRGKPKS	2	–
SeMet-substituted Sac-KARI (ketol-acid reductoisomerase from Sulfolobus acidocaldarius) (enzyme, selenomethionine in place of methionine (SeMet-substituted), Ketol-acid reductoisomerase (class I KARI) of Sulfolobus acidocaldarius, gene ilvc1559, same pET21a-ilvc construct as m1, expressed with selenomethionine; also called SeMet-containing Sac-KARI; source: Overnight Express Autoinduction System 2 (Novagen) with L-methionine and SeMet; purified as the native protein (heating, Ni-NTA, gel filtration)) MAKIYTDKDVSLDVIKEKRVAVLGYGSQGRAWALNLRDSGIKVSVGLEREGNSWKQAENDGFKPLRTEEAVRNSDIIIFLLPDMIQRTVYLERVKPYLKEGMDLVFAHGFNIHYRLIEPPSNVDVYMIAPKAPGPIVREYFAKGGGVPALVATYQDHSGKALQKALAVAKAIGATRAGVIETTFKEETETDLFGEQVDLVGGVMQLMRYAFQTLVEAGYQPEVAYFETINEMKLIVDLVYEKGFSGMLTAVSDTAKYGGMTVGKMVIDESVKERMKKALDNIRSGKFAEKWVEEYGKGANTIKEGMKEVDNSTEEKVGRSLRDIILRGKPKS	–	binds

From article PMC5940873, “NADH/NADPH bi-cofactor-utilizing and thermoactive ketol-acid reductoisomerase from Sulfolobus acidocaldarius” (Scientific Reports, 2018)
